Legend:
[1] = target: T1, LRRKtide peptide (RLGRDKYKTLRQIRQ)
T1 chain: RLGRDKYKTLRQIRQ

[2] = target: T2, Nictide (RLGWWRFYTLRRARQGNTKQR)
T2 chain: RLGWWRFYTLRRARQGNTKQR

B1: GST-LRRK2[1326-2527, G2019S] (protein)
chain: LKKAVPYNRMKLMIVGNTGSGKTTLLQQLMKTKKSDLGMQSATVGIDVKDWPIQIRDKRKRDLVLNVWDFAGREEFYSTHPHFMTQRALYLAVYDLSKGQAEVDAMKPWLFNIKARASSSPVILVGTHLDVSDEKQRKACMSKITKELLNKRGFPAIRDYHFVNATEESDALAKLRKTIINESLNFKIRDQLVVGQLIPDCYVELEKIILSERKNVPIEFPVIDRKRLLQLVRENQLQLDENELPHAVHFLNESGVLLHFQDPALQLSDLYFVEPKWLCKIMAQILTVKVEGCPKHPKGIISRRDVEKFLSKKRKFPKNYMSQYFKLLEKFQIALPIGEEYLLVPSSLSDHRPVIELPHCENSEIIIRLYEMPYFPMGFWSRLINRLLEISPYMLSGRERALRPNRMYWRQGIYLNWSPEAYCLVGSEVLDNHPESFLKITVPSCRKGCILLGQVVDHIDSLMEEWFPGLLEIDICGEGETLLKKWALYSFNDGEEHQKILLDDLMKKAEEGDLLVNPDQPRLTIPISQIAPDLILADLPRNIMLNNDELEFEQAPEFLLGDGSFGSVYRAAYEGEEVAVKIFNKHTSLRLLRQELVVLCHLHHPSLISLLAAGIRPRMLVMELASKGSLDRLLQQDKASLTRTLQHRIALHVADGLRYLHSAMIIYRDLKPHNVLLFTLYPNAAIIAKIADYSIAQYCCRMGIKTSEGTPGFRAPEVARGNVIYNQQADVYSFGLLLYDILTTGGRIVEGLKFPNEFDELEIQGKLPDPVKEYGCAPWPMVEKLIKQCLKENPQERPTSAQVFDILNSAELVCLTRRILLPKNVIVECMVATHHNSRNASIWLGCGHTDRGQLSFLDLNTEGYTSEEVADSRILCLALVHLPVEKESWIVSGTQSGTLLVINTEDGKKRHTLEKMTDSVTCLYCNSFSKQSKQKNFLLVGTADGKLAIFEDKTVKLKGAAPLKILNIGNVSTPLMCLSESTNSTERNVMWGGCGTKIFSFSNDFTIQKLIETRTSQLFSYAAFSDSNIITVVVDTALYIAKQNSPVVEVWDKKTEKLCGLIDCVHFLREVMVKENKESKHKMSYSGRVKTLCLQKNTALWIGTGGGHILLLDLSTRRLIRVIYNFCNSVRVMMTAQLGSLKNVMLVLGYNRKNTEGTQKQKEIQSCLTVWDINLPHEVQNLEKHIEVRKELAEKMRRTSVE
For B1, the “Km (phosphorylation of LRRKtide, P81 paper 32P assay)” value [1] was “a similar Km of approximately 200 µM” and the “Km (concentration dependent phosphorylation of Nictide, 5 min reactions)” value [2] was “Calculated Km values are 6 µM for Nictide”.

Source: patent US20090142784
